# B1: DUX4-s: short splice form of DUX4 (SEQ ID NO:112), keeps the double-homeobox domains, lacks the C-terminal activation domain (protein, listed as Homo sapiens)
# chain: MALPTPSDSTLPAEARGRGRRRRLVWTPSQSEALRACFERNPYPGIATRERLAQAIGIPEPRVQIWFQNERSRQLRQHRRESRPWPGRRGPPEGRRKRTAVTGSQTALLLRAFEKDRFPGIAAREELARETGLPESRIQIWFQNRRARHPGQGGRAPAQV
# Tested on: control human primary myoblasts
# Assay: Expression microarray of primary myoblasts transduced with lentivirus carrying DUX4-fl, DUX4-s or GFP
# Procedure: Primary human myoblasts were collected and cultured as previously described (Snider et al., 2010). Primary myoblasts were maintained at or below 70% confluency for proliferation. For differentiation, cells were allowed to reach 95-100% confluency in growth medium. Once confluency was reached, the cells were changed to differentiation medium (F10 media supplemented with 1% horse serum, 10 μg/mL insulin, and 10 μg/mL transferrin, penicillin/streptomycin) and maintained for 4 days. Human RD cells were grown in DMEM in 10% bovine calf serum (Hyclone) and penicillin/streptomycin. The primary myoblasts were transduced with lentivirus carrying DUX-fl, DUX4- or GFP (MOI=15).
# Expression microarrays were performed on the transduced cells at 24 hours after transduction as follows. […] Samples were analyzed by Illumina Human Whole Genome microarrays. Probe intensities were corrected, normalized, and summarized by the Lumi package of Bioconductor (Du et al., 2008). Differentially expressed genes were identified by the LIMMA package of Bioconductor (Wettenhall and Smyth, 2004). Gene set enrichment analysis (GSEA) was performed using the Bioconductor GOstats package (Falcon and Gentleman, 2007).
molecule,measurement,setting,value
B1,fc of XPO1 (expression array),Refseq NM_003400.3,−0.2325
same,fc of ZFP36 (expression array),Refseq NM_003407.2,0.2317
same,ZKSCAN1 fc,Refseq NM_003439.1,0.3802
same,fc of Cxorfl2 (expression array),Refseq NM_003492.1,0.03462
same,fc of TAGLN2 (expression array),Refseq NM_003564.1,0.05495
same,fc of EEA1 (expression array),Refseq NM_003566.2,1.034
same,IFITM1 expression fc,"Refseq NM_003641.3, cultured human skeletal muscle",0.3441
same,fc of VAMP8 (expression array),Refseq NM_003761.2,0.002691
same,fc of VAMP4 (expression array),Refseq NM_003762.3,0.4731
same,RNGTT expression fc,Refseq NM_003800.3,−0.5916
same,RIPK1 fc,Refseq NM_003804.3,−0.2407
same,TNFSF10 fc,Refseq NM_003810.2,2.972
same,TNFRSF14 expression fc,"Refseq NM_003820.2, cultured human skeletal muscle",0.5666
same,fc of RIOK3 (expression array),Refseq NM_003831.2,1.133
same,TNFRSF10A fc,Refseq NM_003844.2,0.8441
same,PEX11B fc,Refseq NM_003846.1,−0.2212
same,CES2 expression fc,"Refseq NM_003869.4, cultured human skeletal muscle",0.06106
same,CFLAR expression fc,"Refseq NM_003879.3, cultured human skeletal muscle",0.5313
same,fc of ASAP2 (expression array),Refseq NM_003887.2,−0.3423
same,CCNA1 expression fc,Refseq NM_003914.2,1.884
same,fc of USP13 (expression array),Refseq NM_003940.2,−1.038
same,NPR2 fc,Refseq NM_003995.3,−0.04506
same,fc of OSMR (expression array),Refseq NM_003999.1,1.118
same,CHI3L2 expression fc,"Refseq NM_004000.2, cultured human skeletal muscle",0.2573
same,IRF7 expression fc,"Refseq NM_004029.2, cultured human skeletal muscle",1.137
same,CRY1 expression fc,Refseq NM_004075.2,−0.1268
same,PSPN expression fc,Refseq NM_004158.2,−0.03876
same,BEST1 fc,Refseq NM_004183.2,0.2661
same,UBE2L6 expression fc,"Refseq NM_004223.3, cultured human skeletal muscle",0.5808
same,fc of STK17B (expression array),Refseq NM_004226.2,1.309
same,fc of SLC9A3R1 (expression array),Refseq NM_004252.2,−0.06339
same,BST2 expression fc,"Refseq NM_004335.2, cultured human skeletal muscle",0.21
same,CREB1 fc,Refseq NM_004379.2,−0.08534
same,fc of HOXB7 (expression array),Refseq NM_004502.3,−0.06124
same,SP110 expression fc,"Refseq NM_004510.2, cultured human skeletal muscle",1.154
same,PSPH fc,Refseq NM_004577.3,0.005654
same,XPC expression fc,"Refseq NM_004628.3, cultured human skeletal muscle",0.2629
same,PABPN1 expression fc,Refseq NM_004643.1,−0.2585
same,MAP3K6 fc,Refseq NM_004672.3,−0.2268
same,fc of SLC16A5 (expression array),Refseq NM_004695.2,−0.03968
same,fc of SFRS2IP (expression array),Refseq NM_004719.2,−1.068
same,fc of ARHGEF2 (expression array),Refseq NM_004723.2,−0.07136
same,TIAF1 fc,Refseq NM_004740.3,−0.5294
same,NOLC1 expression fc,Refseq NM_004741.1,0.4977
same,SLIT2 expression fc,Refseq NM_004787.1,0.8501
same,LPXN fc,Refseq NM_004811.1,−0.0176
same,PEX16 fc,Refseq NM_004813.1,0.02427
same,C9orf61 expression fc,Refseq NM_004816.2,−0.2563
same,MED26 expression fc,Refseq NM_004831.3,0.1371
same,fc of GSTO1 (expression array),Refseq NM_004832.1,0.3142
same,fc of LITAF (expression array),Refseq NM_004862.2,1.12
same,fc of SCAMPI (expression array),Refseq NM_004866.4,1.369
same,fc of APBA3 (expression array),Refseq NM_004886.3,0.001776
same,SERPINI1 expression fc,Refseq NM_005025.3,0.0354
same,TRIM25 expression fc,"Refseq NM_005082.4, cultured human skeletal muscle",0.5139
same,SFRS17A expression fc,Refseq NM_005088.2,0.2404
same,ISG15 expression fc,"Refseq NM_005101.1, cultured human skeletal muscle",0.128
same,MVP fc,Refseq NM_005115.3,−0.1162
same,MED13 expression fc,Refseq NM_005121.2,0.0264
same,fc of REC8 (expression array),Refseq NM_005132.2,−0.244
same,ATP6V0A1 fc,Refseq NM_005177.3,−0.04497
same,CEBPB expression fc,"Refseq NM_005194.2, cultured human skeletal muscle",0.2783
same,ETS1 fc,Refseq NM_005238.2,−0.1783
same,FAT1 fc,Refseq NM_005245.3,0.4055
same,GPR37 expression fc,Refseq NM_005302.2,0.2151
same,H1F0 expression fc,"Refseq NM_005318.2, cultured human skeletal muscle",0.5004
same,HSPA1A expression fc,Refseq NM_005345.4,−0.02035
same,HSPA1B expression fc,Refseq NM_005346.3,0.359
same,NEFM expression fc,Refseq NM_005382.1,0.8485

# From patent US20140242093A1, “METHODS AND COMPOSITIONS FOR MODULATING THE INNATE IMMUNE RESPONSE AND/OR MYOGENESIS IN A MAMMALIAN SUBJECT” (FRED HUTCHINSON CANCER RESEARCH CENTER, priority 2011, published 2014)
